The values below come from PMC3005583.

For this series, the target named is lysozyme (Lys) (UniProt P00698 19-147). Nature of the series: competition.

B1: Anti-Lys aptamer / Competitor 3 probe (mixed)
DNA 1: ATCAGGGCTAAAGAGTGCAGAGTTACTTAG
DNA 2: ATCAGGGCACTCTTTAGCCCTGAT
modifications: 5' and 3' pyrene via (CH2)6 on strand 2
B1: the binding result is recorded as “binds”.
